Measured values: the RNAGym collection of RNA variant scans (doi:10.1093/nar/gkz1192)

B1: CPEB3 Ribozyme (parent)
chain: UAACAGGGGGCCACAGCAGAAGCGUUCACGUCGCAGCCCCUGUCAGAUUCUGGUGAAUCUGCGAAUUCUGCUGUAUAUCUC

Variants of: B1
Assay: self-cleavage, relative activity (ratio to wild type); higher = more cleavage; in vitro, sequencing
How it was run: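 Barcoded CPEB3 ribozyme mutants, produced by rounds of error-prone PCR, self-cleaved while being transcribed with T7 RNA polymerase for 5 hours at 37°C and during a subsequent 15 min DNase I step before EDTA was added. Sequencing of template-switched cDNA on Illumina gave cleaved and total reads, and DNA sequencing assigned barcodes to variants. Each variant's relative activity is its cleaved/total read fraction divided by the unmutated ribozyme's fraction, averaged across three batches. A variant needed a minimum of 5 reads.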

Row | Variant | self-cleavage
1 | UACCAGGGGGCCACAGCAGAAGCGUUCACGUCGCAGCCCCUGUCAGAUUCUGGUGAAUCUGCGAAUUCUGCUGUAUUUCUC | 1.03
2 | UACCAGGGGGCCACAGCAGAGGCGUUCACGUCGCAGCCCCUGUCAGAUUCUGGUGAAUCUGCGAAUUCUGCUGUAUAUCUC | 0.63
3 | UACCAGGGGGCCACAGCAGAAGCGUUCACGUCGCAGCCCCUGUCAGAUUCUGGUGAACCUGCGAAUUCUGCUGUAUAUCUC | 0.4
4 | UACCAGGGGGCCACAGCAGAAGCGUUCACGUCGCAGCCCCUGUCAGAUUCUGGUGAAGCUGCGAAUUCUGCUGUAUAUCUC | 0.25
5 | UACCAGGGGGCCACAGCAGAAGCGUUCACGUCGCAGCCCCUGUCAGAUUCUGGUGAAACUGCGAAUUCUGCUGUAUAUCUC | 0.5
6 | UACCAGGGGGCCACAGCAGAAGCGUUCACGUCGCAGCCCCUGUCAGAUUCUGGUGAAUCCGCGAAUUCUGCUGUAUAUCUC | 0.83
7 | UACCAGGGGGCCACAGCAGAAGCGUUCACGGCGCAGCCCCUGUCAGAUUCUGGUGAAUCUGCGAAUUCUGCUGUAUAUCUC | 0.93
8 | UACCAGGGGGCCACAGCAGAAGCGUUCACGUCGCAGCCCCUGUCAGAUUCUGGUGAAUCUCCGAAUUCUGCUGUAUAUCUC | 0.32
9 | UACCAGGGGGCCACAGCAGAAGCAUUCACGUCGCAGCCCCUGUCAGAUUCUGGUGAAUCUGCGAAUUCUGCUGUAUAUCUC | 0.29
10 | UACCAGGGGGCCACAGCAGAAGCGUUCACGUCGCAGCCCCUGUCAGAUUCUGGUGAGUCUGCGAAUUCUGCUGUAUAUCUC | 1.19
11 | UACCAGGGGGCCACAGCAGGAGCGUUCACGUCGCAGCCCCUGUCAGAUUCUGGUGAAUCUGCGAAUUCUGCUGUAUAUCUC | 1.05
12 | UAGCCGGGGGCCACAGCAGAAGCGUUCACGUCGCAGCCCCUGUCAGAUUCUGGUGAAUCUGCGAAUUCUGCUGUAUAUCUC | 0.71
13 | UAGCGGGGGGCCACAGCAGAAGCGUUCACGUCGCAGCCCCUGUCAGAUUCUGGUGAAUCUGCGAAUUCUGCUGUAUAUCUC | 0.76
14 | UAGCUGGGGGCCACAGCAGAAGCGUUCACGUCGCAGCCCCUGUCAGAUUCUGGUGAAUCUGCGAAUUCUGCUGUAUAUCUC | 1.04
15 | UACCAGGGGGCCACUGCAGAAGCGUUCACGUCGCAGCCCCUGUCAGAUUCUGGUGAAUCUGCGAAUUCUGCUGUAUAUCUC | 0.77
16 | UACCAGGGGGCCACGGCAGAAGCGUUCACGUCGCAGCCCCUGUCAGAUUCUGGUGAAUCUGCGAAUUCUGCUGUAUAUCUC | 1.03
17 | UACCAGGGGGCCACAGCAGAAGCGUUCACGUCGCAGCCCCUGACAGAUUCUGGUGAAUCUGCGAAUUCUGCUGUAUAUCUC | 1.24
18 | UACCAGGGGGCCACAGCAGAAGCGUUCACGUCGCAGCCCCUGCCAGAUUCUGGUGAAUCUGCGAAUUCUGCUGUAUAUCUC | 0.81
19 | UACCAGGGGGUCACAGCAGAAGCGUUCACGUCGCAGCCCCUGUCAGAUUCUGGUGAAUCUGCGAAUUCUGCUGUAUAUCUC | 0.88
20 | UACCAGGGGGCCACAGUAGAAGCGUUCACGUCGCAGCCCCUGUCAGAUUCUGGUGAAUCUGCGAAUUCUGCUGUAUAUCUC | 0.54
21 | UACCAGGGGGCCACAGCAGAAGCGUUCACGUCGCAGCCCCUGUCAGAUCCUGGUGAAUCUGCGAAUUCUGCUGUAUAUCUC | 0.86
22 | UACCAGGGGGCCACAGCAGAAGCGUUCACGUCGCAGCCCCUGUCAGAUACUGGUGAAUCUGCGAAUUCUGCUGUAUAUCUC | 1.1
23 | UACCAGGGGGCCACAGCAGAAGCGUUCACGUCGCAGCCCCUGUCAGAUUCUGGUGAAUCUGCGAAUUCUGCUGUAAAUCUC | 1

Row | Variant | self-cleavage
24 | UACCAGGGGGCCACAGCAGAAGCGUUCACGUCGCAGCCCCUGUCAGAUUCUGGUGAAUCUGCGAAUUCUGCUGUGUAUCUC | 1.14
25 | UACCAGUGGGCCACAGCAGAAGCGUUCACGUCGCAGCCCCUGUCAGAUUCUGGUGAAUCUGCGAAUUCUGCUGUAUAUCUC | 0.39
26 | UACCAGGGGGCCACAGCAGAAGCGUUCACGUCCCAGCCCCUGUCAGAUUCUGGUGAAUCUGCGAAUUCUGCUGUAUAUCUC | 0.35
27 | UAGCAGGGGGCCUCAGCAGAAGCGUUCACGUCGCAGCCCCUGUCAGAUUCUGGUGAAUCUGCGAAUUCUGCUGUAUAUCUC | 1.02
28 | UAGCAGGGGGCCCCAGCAGAAGCGUUCACGUCGCAGCCCCUGUCAGAUUCUGGUGAAUCUGCGAAUUCUGCUGUAUAUCUC | 1.02
29 | UAGCAGGGGGCCGCAGCAGAAGCGUUCACGUCGCAGCCCCUGUCAGAUUCUGGUGAAUCUGCGAAUUCUGCUGUAUAUCUC | 0.95
30 | UACCAGGGGGCCACAGCAGAAGCGUUCACGUCGCAGCCCCUGUCAGGUUCUGGUGAAUCUGCGAAUUCUGCUGUAUAUCUC | 1.12
31 | UACCAGGGGGCCACAGCGGAAGCGUUCACGUCGCAGCCCCUGUCAGAUUCUGGUGAAUCUGCGAAUUCUGCUGUAUAUCUC | 0.64
32 | UACCAGGGGGCCACAGCUGAAGCGUUCACGUCGCAGCCCCUGUCAGAUUCUGGUGAAUCUGCGAAUUCUGCUGUAUAUCUC | 0.73
33 | UACCAGGGGGCCACAGCAGAAGCGUCCACGUCGCAGCCCCUGUCAGAUUCUGGUGAAUCUGCGAAUUCUGCUGUAUAUCUC | 0.6
34 | UACCAGGGGGCCACAGCAGAAGCGUACACGUCGCAGCCCCUGUCAGAUUCUGGUGAAUCUGCGAAUUCUGCUGUAUAUCUC | 1.2
35 | UACCAGGGGGCCACAGCAGAAGCGUUCACGUCGCAGCCCCUGUCAGAUUCUGGUGAAUCUGCGAAUUCAGCUGUAUAUCUC | 1.08
36 | UACCAGGGGGCCACAGCAGAAGCGUUCACGUCGCAGCCCCUGUCAGAUUCUGGCGAAUCUGCGAAUUCUGCUGUAUAUCUC | 1.17
37 | UACCAGGGGGCCACAGCAGAAGCGUUCACGUCGCUGCCCCUGUCAGAUUCUGGUGAAUCUGCGAAUUCUGCUGUAUAUCUC | 0.81
38 | UACCAGGGGGCCACAGCAGAAGCGUUCACGUCGCGGCCCCUGUCAGAUUCUGGUGAAUCUGCGAAUUCUGCUGUAUAUCUC | 1.21
39 | UACCAGGGGGCCACAGCAGAAGCGUUCACGUCGCAGCCUCUGUCAGAUUCUGGUGAAUCUGCGAAUUCUGCUGUAUAUCUC | 1.13
40 | UACCAGGGGGCCACAGCAGAAGCGUUCACGUCGCAGUCCCUGUCAGAUUCUGGUGAAUCUGCGAAUUCUGCUGUAUAUCUC | 0.6
41 | UACCAGGGGGCCACAGCAGAAGCGCUCACGUCGCAGCCCCUGUCAGAUUCUGGUGAAUCUGCGAAUUCUGCUGUAUAUCUC | 0.44
42 | UACCAGGGGGCCACAGCAGAAGCGAUCACGUCGCAGCCCCUGUCAGAUUCUGGUGAAUCUGCGAAUUCUGCUGUAUAUCUC | 0.4
43 | UACCAGGGGGCCACAGCAGAAGCGGUCACGUCGCAGCCCCUGUCAGAUUCUGGUGAAUCUGCGAAUUCUGCUGUAUAUCUC | 0.55
44 | UACCAGGGGGCCACAGCAGAAGCGUUCACGUCGCAGCCCCUGUGAGAUUCUGGUGAAUCUGCGAAUUCUGCUGUAUAUCUC | 0.84
45 | UACCAGGGGGCCACAGCAGAAGCGUUCACGUCGCAGCCCCUGUCAGAUUCUGGUGAAUCUGCGGAUUCUGCUGUAUAUCUC | 1.17
46 | UACCAGGGGGCCACAGCAGAAGCGUUCACGUCGCAGCCCCUGUCAGAUUCUGGUGAAUCUGCGAAUUCUGCUGUAUAUCUC | 1.16

Row | Variant | self-cleavage
47 | UAGCAGGGGGCCACAGCAGAAGCGUUCACGUCGCAGCCCCUGUCAGAUUCUGGUGAAUCUGCGAAUUCUGCUGUAUAUCUC | 1.02
48 | UACCAGGGGGCCACAGCAGAAGCGUUCACGUCGCAGCCCCUGUCAGAUUCUGGUGAAUCUGCGAAUUCUGCUGAAUAUCUC | 1.14
49 | UACCAGGGGGCCACAGCAGAAGCGUUCACGUCGCAGCCCCUGUCAGAUUCUGGUGAAUCUGCGAAUUCUGCUGUAUACCUC | 1.12
50 | UACCAGGGGGCCACAGCAGAAGCGUUCACGUCGCAGCCCCUGUCAGAUUCUGGUGAAUCUGCGAAUCCUGCUGUAUAUCUC | 0.33
51 | UACCAGGGGGCCACAGCAGAAGCGUUCACGUCGCAGCCCCUGUCAGAUUCUGGUGAAUCUGCGAGUUCUGCUGUAUAUCUC | 0.92
52 | UACCAGGGGGCCACAGCAGAAGCGUUCACGUCGCAGCCCCUGUCAGAUUCUGGUGAAUCUGCGAUUUCUGCUGUAUAUCUC | 0.95
53 | UACCAGGGGGCCACAGCAGAAGCGUUCACGUCGCAGCCCCUGUCAGAUUCUGGUGAAUCUGUGAAUUCUGCUGUAUAUCUC | 0.29
54 | UACCAGGGGGCCACAGCAGAAGCGUUCACGUCGCAGCCCCUGUCAGAUUCAGGUGAAUCUGCGAAUUCUGCUGUAUAUCUC | 1.19
55 | UACCAGGGGGCCACAGCAGAAGCGUUCACGUCGCAGCCCCUGUCAGAUUCCGGUGAAUCUGCGAAUUCUGCUGUAUAUCUC | 1.12
56 | UACCAGGGGGCCACAGCAGAAGCGUUCGCGUCGCAGCCCCUGUCAGAUUCUGGUGAAUCUGCGAAUUCUGCUGUAUAUCUC | 1.09
57 | UACCAGGGGGCCACAGCAGAAGCGUUCACGUCGCAGCCCCUGUCAAAUUCUGGUGAAUCUGCGAAUUCUGCUGUAUAUCUC | 0.25
58 | UACCAGGGGGCCACAGCAGAAGCGUUCACGUCGCAGCCCCAGUCAGAUUCUGGUGAAUCUGCGAAUUCUGCUGUAUAUCUC | 0.24
59 | UACCAGGGGGCCACAGCAGAAGCGUUCACGUCGCAGCCCCCGUCAGAUUCUGGUGAAUCUGCGAAUUCUGCUGUAUAUCUC | 1.02
60 | UACCAGGGGGCCACAGCAGAAGCGUUCACGUCGCAGCCCCGGUCAGAUUCUGGUGAAUCUGCGAAUUCUGCUGUAUAUCUC | 0.56
61 | UACCAGGGGGCCACAGCAGAAGCGUUCACGUCGCAGCCCCUGUCAGAUUCUGGUGAAUCUGCGAAUUCUGCAGUAUAUCUC | 1.09
62 | UACCCGGGGGCCACAGCAGAAGCGUUCACGUCGCAGCCCCUGUCAGAUUCUGGUGAAUCUGCGAAUUCUGCUGUAUAUCUC | 1.23
63 | UACCGGGGGGCCACAGCAGAAGCGUUCACGUCGCAGCCCCUGUCAGAUUCUGGUGAAUCUGCGAAUUCUGCUGUAUAUCUC | 0.62
64 | UACCAGGGGGCCACAGCAGAAGCGUUCACGUCGCAGCCCCUGUCAGAUUCUGGUGAAUCUGCGAAUUCUGCUGUAUAUCUG | 1.19
65 | UACCAGGGGGCCACAGCAGAAGCGUUCACGUCGCAGCCCCUGUCAGAUUCUGGUGUAUCUGCGAAUUCUGCUGUAUAUCUC | 0.65
66 | UACCAGGGGGCCACAGCAGAAGCGUUCACGUCGCAGCCCCUGUCAGAUUCUGGUGGAUCUGCGAAUUCUGCUGUAUAUCUC | 1.12
67 | UACCAGGGGGCCACAGCAGAAGCGUUCACGUCGCAGCCCCUGUCUGAUUCUGGUGAAUCUGCGAAUUCUGCUGUAUAUCUC | 0.89
68 | UACCAGGGGGCCACAGCAGAAGCGUUCACGUCGCAGCCCCUGUCGGAUUCUGGUGAAUCUGCGAAUUCUGCUGUAUAUCUC | 0.93
